Test results published in patent US20260209386A1 (MYTHIC THERAPEUTICS, published 2026).

T1: Human PTK7/CCK4 Protein, His Tag, Acro Biosystems PT7-H52H3 (human, UniProt Q13308 31-704)
T1 construct: bought protein; also called Human PTK7 Protein, His Tag, Acro Biosystems; not shown: His tag
T1 sequence: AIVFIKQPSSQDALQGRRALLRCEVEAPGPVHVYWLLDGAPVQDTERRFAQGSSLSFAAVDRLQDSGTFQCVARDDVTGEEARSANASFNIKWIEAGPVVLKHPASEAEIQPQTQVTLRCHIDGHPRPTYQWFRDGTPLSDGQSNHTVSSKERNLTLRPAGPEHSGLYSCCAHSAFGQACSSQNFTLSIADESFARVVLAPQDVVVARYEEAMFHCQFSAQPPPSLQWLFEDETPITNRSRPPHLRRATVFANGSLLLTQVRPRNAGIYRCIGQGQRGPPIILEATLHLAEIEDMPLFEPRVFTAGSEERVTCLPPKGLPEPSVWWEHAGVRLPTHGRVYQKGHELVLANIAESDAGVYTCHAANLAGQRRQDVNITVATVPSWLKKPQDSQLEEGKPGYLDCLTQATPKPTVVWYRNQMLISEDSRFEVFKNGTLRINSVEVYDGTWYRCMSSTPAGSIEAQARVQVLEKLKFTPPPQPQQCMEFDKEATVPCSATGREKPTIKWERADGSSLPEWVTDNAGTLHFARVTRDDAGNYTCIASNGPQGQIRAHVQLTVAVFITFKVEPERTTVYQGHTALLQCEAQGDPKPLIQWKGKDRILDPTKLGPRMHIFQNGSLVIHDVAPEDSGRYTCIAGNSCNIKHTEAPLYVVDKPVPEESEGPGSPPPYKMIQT

B1: MYT10951 (antibody, V domains shown)
VH: EVQLVESGGGLVQPGGSLRLSCTASHFSLSSYAMGWVRQAPGKGLEWVGFINAGGNTYYANWAKGRFTISRDTSKNTVYLQMNSLRAEDTAVYFCARRYSRASGWYDLWGQGTLVTVSS
VL: EIVMTQSPSTLSASVGDRVIITCQASQSISSYLAWYQQKPGKAPKLLIYAASTLASGVPSRFSGSGSGAEFTLTISSLQPDDFATYYCQSYSYSSGIDYGDVFGQGTKLTVL
notes: IgG
B2: MYT10966 (antibody, V domains shown)
VH: EVQLVESGGGLVQPGGSLRLSCTASGFSLSSYAMGWVRQAPGKGLEWVGFINAGHNTYYANWAKGRFTISRDTSKNTVYLQMNSLRAEDTAVYFCARRYSRASGWYDLWGQGTLVTVSS
VL: EIVMTQSPSTLSASVGDRVIITCQASQSISSYLAWYQQKPGKAPKLLIYAASTLASGVPSRFSGSGSGAEFTLTISSLQPDDFATYYCQSYSYSSGIDYGDVFGQGTKLTVL
notes: IgG
B3: MYT10970 (antibody, V domains shown)
VH: EVQLVESGGGLVQPGGSLRLSCTASGFSLSSYAMGWVRQAPGKGLEWVGFINAGGNTYHANWAKGRFTISRDTSKNTVYLQMNSLRAEDTAVYFCARRYSRASGWYDLWGQGTLVTVSS
VL: EIVMTQSPSTLSASVGDRVIITCQASQSISSYLAWYQQKPGKAPKLLIYAASTLASGVPSRFSGSGSGAEFTLTISSLQPDDFATYYCQSYSYSSGIDYGDVFGQGTKLTVL
notes: IgG
B4: MYT10957 (antibody, V domains shown)
VH: EVQLVESGGGLVQPGGSLRLSCTASGFSLSSHAMGWVRQAPGKGLEWVGFINAGGNTYYANWAKGRFTISRDTSKNTVYLQMNSLRAEDTAVYFCARRYSRASGWYDLWGQGTLVTVSS
VL: EIVMTQSPSTLSASVGDRVIITCQASQSISSYLAWYQQKPGKAPKLLIYAASTLASGVPSRFSGSGSGAEFTLTISSLQPDDFATYYCQSYSYSSGIDYGDVFGQGTKLTVL
notes: IgG
B5: MYT10959 (antibody, V domains shown)
VH: EVQLVESGGGLVQPGGSLRLSCTASGFSLSSYAHGWVRQAPGKGLEWVGFINAGGNTYYANWAKGRFTISRDTSKNTVYLQMNSLRAEDTAVYFCARRYSRASGWYDLWGQGTLVTVSS
VL: EIVMTQSPSTLSASVGDRVIITCQASQSISSYLAWYQQKPGKAPKLLIYAASTLASGVPSRFSGSGSGAEFTLTISSLQPDDFATYYCQSYSYSSGIDYGDVFGQGTKLTVL
notes: IgG
B6: MYT10962 (antibody, V domains shown)
VH: EVQLVESGGGLVQPGGSLRLSCTASGFSLSSYAMGWVRQAPGKGLEWVGFHNAGGNTYYANWAKGRFTISRDTSKNTVYLQMNSLRAEDTAVYFCARRYSRASGWYDLWGQGTLVTVSS
VL: EIVMTQSPSTLSASVGDRVIITCQASQSISSYLAWYQQKPGKAPKLLIYAASTLASGVPSRFSGSGSGAEFTLTISSLQPDDFATYYCQSYSYSSGIDYGDVFGQGTKLTVL
notes: IgG
B7: MYT10969 (antibody, V domains shown)
VH: EVQLVESGGGLVQPGGSLRLSCTASGFSLSSYAMGWVRQAPGKGLEWVGFINAGGNTHYANWAKGRFTISRDTSKNTVYLQMNSLRAEDTAVYFCARRYSRASGWYDLWGQGTLVTVSS
VL: EIVMTQSPSTLSASVGDRVIITCQASQSISSYLAWYQQKPGKAPKLLIYAASTLASGVPSRFSGSGSGAEFTLTISSLQPDDFATYYCQSYSYSSGIDYGDVFGQGTKLTVL
notes: IgG
B8: MYT10963 (antibody, V domains shown)
VH: EVQLVESGGGLVQPGGSLRLSCTASGFSLSSYAMGWVRQAPGKGLEWVGFIHAGGNTYYANWAKGRFTISRDTSKNTVYLQMNSLRAEDTAVYFCARRYSRASGWYDLWGQGTLVTVSS
VL: EIVMTQSPSTLSASVGDRVIITCQASQSISSYLAWYQQKPGKAPKLLIYAASTLASGVPSRFSGSGSGAEFTLTISSLQPDDFATYYCQSYSYSSGIDYGDVFGQGTKLTVL
notes: IgG
B9: MYT10928 (antibody, V domains shown)
VH: EVQLVESGGGLVQPGGSLRLSCTASGFSLSNYVMNWVRQAPGKGLEWVGIIDSSGSTYYASWAKGRFTISRDTSKNTVYLQMNSLRAEDTAVYFCARGLYLWGQGTLVTVSS
VL: EIVMTQSPSTLSASVGDRVIITCQSSQSVYNNHLLAWYQQKPGKAPKLLIYYTSNLASGVPSRFSGSGSGAEFTLTISSLQPDDFATYYCQGGYNGNIYAFGQGTKLTVL
notes: IgG
B10: MYT10930 (antibody, V domains shown)
VH: EVQLVESGGGLVQPGGSLRLSCTASGFSLSNYVMNWVRQAPGKGLEWVGIIDSSGSTYYASWAKGRFTISRDTSKNTVYLQMNSLRAEDTAVYFCARGLYLWGQGTLVTVSS
VL: EIVMTQSPSTLSASVGDRVIITCQSSQSVYNNNLHAWYQQKPGKAPKLLIYYTSNLASGVPSRFSGSGSGAEFTLTISSLQPDDFATYYCQGGYNGNIYAFGQGTKLTVL
notes: IgG
B11: MYT10942 (antibody, V domains shown)
VH: EVQLVESGGGLVQPGGSLRLSCTASGFSLSNYVMNWVRQAPGKGLEWVGIIDSSGSTYYASWAKGRFTISRDTSKNTVYLQMNSLRAEDTAVYFCARGLYLWGQGTLVTVSS
VL: EIVMTQSPSTLSASVGDRVIITCQSSQSVYNNNLLAWYQQKPGKAPKLLIYYTSNLASGVPSRFSGSGSGAEFTLTISSLQPDDFATYYCQGGHNGNIYAFGQGTKLTVL
notes: IgG
B12: MYT10936 (antibody, V domains shown)
VH: EVQLVESGGGLVQPGGSLRLSCTASGFSLSNYVMNWVRQAPGKGLEWVGIIDSSGSTYYASWAKGRFTISRDTSKNTVYLQMNSLRAEDTAVYFCARGLYLWGQGTLVTVSS
VL: EIVMTQSPSTLSASVGDRVIITCQSSQSVYNNNLLAWYQQKPGKAPKLLIYYTSNHASGVPSRFSGSGSGAEFTLTISSLQPDDFATYYCQGGYNGNIYAFGQGTKLTVL
notes: IgG
B13: MYT10944 (antibody, V domains shown)
VH: EVQLVESGGGLVQPGGSLRLSCTASGFSLSNYVMNWVRQAPGKGLEWVGIIDSSGSTYYASWAKGRFTISRDTSKNTVYLQMNSLRAEDTAVYFCARGLYLWGQGTLVTVSS
VL: EIVMTQSPSTLSASVGDRVIITCQSSQSVYNNNLLAWYQQKPGKAPKLLIYYTSNLASGVPSRFSGSGSGAEFTLTISSLQPDDFATYYCQGGYNHNIYAFGQGTKLTVL
notes: IgG
B14: MYT10943 (antibody, V domains shown)
VH: EVQLVESGGGLVQPGGSLRLSCTASGFSLSNYVMNWVRQAPGKGLEWVGIIDSSGSTYYASWAKGRFTISRDTSKNTVYLQMNSLRAEDTAVYFCARGLYLWGQGTLVTVSS
VL: EIVMTQSPSTLSASVGDRVIITCQSSQSVYNNNLLAWYQQKPGKAPKLLIYYTSNLASGVPSRFSGSGSGAEFTLTISSLQPDDFATYYCQGGYHGNIYAFGQGTKLTVL
notes: IgG
B15: MYT10949 (antibody, V domains shown)
VH: EVQLVESGGGLVQPGGSLRLSCTASGFSLSNYVMNWVRQAPGKGLEWVGIIDSSGSTYYASWAKGRFTISRDTSKNTVYLQMNSLRAEDTAVYFCARGLYLWGQGTLVTVSS
VL: EIVMTQSPSTLSASVGDRVIITCQSSQSVYNNNLLAWYQQKPGKAPKLLIYYTSNLASGVPSRFSGSGSGAEFTLTISSLQPDDFATYYCQGGYNGNIYAFGQGTKLEIK
notes: IgG
B16: MYT10939 (antibody, V domains shown)
VH: EVQLVESGGGLVQPGGSLRLSCTASGFSLSNYVMNWVRQAPGKGLEWVGIIDSSGSTYYASWAKGRFTISRDTSKNTVYLQMNSLRAEDTAVYFCARGLYLWGQGTLVTVSS
VL: EIVMTQSPSTLSASVGDRVIITCQSSQSVYNNNLLAWYQQKPGKAPKLLIYYTSNLASGVPSRFSGSGSGAEFTLTISSLQPDDFATYYCHGGYNGNIYAFGQGTKLTVL
notes: IgG
B17: MYT10946 (antibody, V domains shown)
VH: EVQLVESGGGLVQPGGSLRLSCTASGFSLSNYVMNWVRQAPGKGLEWVGIIDSSGSTYYASWAKGRFTISRDTSKNTVYLQMNSLRAEDTAVYFCARGLYLWGQGTLVTVSS
VL: EIVMTQSPSTLSASVGDRVIITCQSSQSVYNNNLLAWYQQKPGKAPKLLIYYTSNLASGVPSRFSGSGSGAEFTLTISSLQPDDFATYYCQGGYNGNHYAFGQGTKLTVL
notes: IgG
B18: MYT10935 (antibody, V domains shown)
VH: EVQLVESGGGLVQPGGSLRLSCTASGFSLSNYVMNWVRQAPGKGLEWVGIIDSSGSTYYASWAKGRFTISRDTSKNTVYLQMNSLRAEDTAVYFCARGLYLWGQGTLVTVSS
VL: EIVMTQSPSTLSASVGDRVIITCQSSQSVYNNNLLAWYQQKPGKAPKLLIYYTSHLASGVPSRFSGSGSGAEFTLTISSLQPDDFATYYCQGGYNGNIYAFGQGTKLTVL
notes: IgG
B19: MYT10937 (antibody, V domains shown)
VH: EVQLVESGGGLVQPGGSLRLSCTASGFSLSNYVMNWVRQAPGKGLEWVGIIDSSGSTYYASWAKGRFTISRDTSKNTVYLQMNSLRAEDTAVYFCARGLYLWGQGTLVTVSS
VL: EIVMTQSPSTLSASVGDRVIITCQSSQSVYNNNLLAWYQQKPGKAPKLLIYYTSNLHSGVPSRFSGSGSGAEFTLTISSLQPDDFATYYCQGGYNGNIYAFGQGTKLTVL
notes: IgG

Target: T1, Human PTK7/CCK4 Protein, His Tag, Acro …
Experiment: BLI, antibody on anti-human Fc sensor, 50 nM PTK7

Binding result, binds:
B1, B2, B3, B4, B5, B6, B7, B8, B9, B10, B11, B12, B13, B14, B15, B16, B17, B18, B19
